These are literature values, as cited in publication PMC8508339.

For data set [1], the target named is cholecystokinin (Homo sapiens) (UniProt P06307).
Another data set concerns the target gastrin (Homo sapiens) (UniProt P01350).
UniProt P01350, sequence (P01350 whole entry, looked up): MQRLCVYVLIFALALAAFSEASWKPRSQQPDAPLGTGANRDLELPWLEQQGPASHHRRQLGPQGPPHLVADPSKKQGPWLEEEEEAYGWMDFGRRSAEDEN

UniProt P06307, sequence (P06307 whole entry, looked up): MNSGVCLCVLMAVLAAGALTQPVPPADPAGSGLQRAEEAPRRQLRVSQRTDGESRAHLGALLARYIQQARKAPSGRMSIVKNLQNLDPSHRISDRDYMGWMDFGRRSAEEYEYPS

The Kd is the free concentration of one partner at which half of the binding sites on the other are occupied at equilibrium, for simple one-to-one binding. For “CCK-B receptor (CCK2) (from UniProt P32239)”, the Kd (in data set [1]; with gastrin (Homo sapiens)) was 1 nM throughout.
